Test results taken from patent US7951775B2, “Methods and pharmaceutical compositions for GnRH-I and GnRH-II modulation of T-cell activity, adhesion, migration and extravasation” (priority 2001, dated 2011).
Entries after “also recorded” stand apart in the source; their conditions may differ.

Assays:
EL-4 T-lymphoma cells = assay: Double immunofluorescence staining for 67 kDa LR and TCRαβ on EL-4 cells; format: cell-based, mouse; details: 10 nM, vs untreated EL-4 cells
Experimental: Normal human T-cells, isolated from fresh peripheral blood lymphocytes, or EL-4 T-lymphocyte cells were subjected to double immunofluorescence staining, using a mouse monoclonal anti-67 kDa LR antibody (100 μl of 1:20 dilution per 1×10^6 cells/tube; 30 minutes on ice), or normal mouse sera for control. The cells were then stained with an FITC-conjugated goat anti-mouse IgG (100 μl of 1:100 dilution), and PE-conjugated mouse anti-human TCR αβ mAb (2 μl of stock). Cells that were stained only with the second and third antibodies served as additional negative controls. Fluorescence profiles were recorded in a FACSORT.
Normal syngeneic C57BL/6 female recipient mice were then subjected to 300 rad total body irradiation, and several hours later inoculated I.P with 5×10^6 cells/mouse of either untreated or GnRH-treated EL-4 lymphoma cells. In parallel, samples from the treated and GnRH inoculated EL-4 cells were tested by double immunofluorescence (as described above) for the level of their 67 kD LR and TCRαβ. […] Following further dilution in PBS for the kidney (1:3) and liver (1:10), the number of fluorescent cells, as well as the total number of cells in each tube, were counted by flow cytometry (FACSORT).

normal human T-cells = assay: T-cell adhesion to laminin assay; format: cell-based; details: 10 nM, 48 hours pretreatment; PMA 10 ng/ml positive control; four donors
Experimental: Adhesion of T-cells to laminin was assayed as follows: normal human T-cells, purified from a fresh blood sample, were suspended (1×10^6 cells/ml) in rest medium (RPMI-1640, supplemented with 10% fetal calf serum (Sigma Chemical Co., St. Louis, Mo.), 1% antibiotics, 1% glutamine (Biological Industries, Beit Haemek, Israel) and 0.4% fungizone (GibcoBRL, Life Technologies Ltd., Paisley, Scotland)). The cells were then supplemented with 10 nM GnRH-I or GnRH-II and incubated for variable periods of time (0.5-72 hours, 37° C., 7.5% CO2 humidified incubator). Following incubation the cells were washed and resuspended in adhesion medium (RPMI-1640 supplemented with 0.1% bovine serum albumin (BSA, Sigma)). […] The optical density (OD) was measured at 405 nm in a standard ELISA reader. […]
To study the functional consequences of the increase in the 67 kDa LR expression level following GnRH stimulation, the ability of GnRH-treated normal human T-cells to adhere to laminin was assessed. […] In parallel, increasing numbers of untreated cells were seeded on separate plates, in order to establish a standard curve, enabling the relation of results obtained in units of fluorescence intensity (OD) to actual number of cells.

[1] = system: mouse antigen-specific T cells; assay: Atlas mouse cDNA expression array of GnRH-II treated T-cells; format: cell-based
Experimental: Anti-MBP 87-99 T-cell lines were established from lymph nodes of SJI/J mice as described^23 and analyzed for their specificity to MBP 87-99 peptide in a proliferation assay.
Poly A+RNA was extracted from the mouse anti-MBP 87-99 cell line before and after treatment with 10 nM GnRH-II for 24 hours, using the ATLAS Pure Total RNA Labeling System (Clontech Laboratories, Inc. Palo Alto, Calif.) according to manufacturers recommendations. Following DNase treatment, ^32P-labeled cDNA was prepared from poly A+ RNA preparations that were prepared from either untreated or GnRH-II treated mouse T-cells. Hybridizations to the ATLAS Mouse cDNA Expression Arrays membranes (Catalog No. PT3140-1, Clontech Laboratories), were performed according to the user manual, and the expression pattern was visualized by autoradiography.
Poly A+ RNA was prepared from both GnRH-II-treated and untreated cells and reverse transcribed to ^32P-labeled cDNA. Using an Atlas cDNA expression array (i.e. a positively charged nylon membrane spotted with 1200 different cDNAs) for identification of effected genes, the reverse transcribed products were characterized by hybridization to the atlas membranes. The differential pattern of expression between untreated cells and GnRH-II-treated cells was visualized by autoradiography (FIGS. 1A and 1B).

| Molecule | surface level of 67 kDa LR on TCR αβ+ EL-4 cells (EL-4 T-lymphoma cells) | T-cell adhesion to laminin (normal human T-cells) | expression of mRNA encoding non-integrin 67 kDa laminin receptor ([1]; 10 nM, 24 hours, resting mouse antigen-specific T-cells, vs untreated cells) | transcription of other genes including house-keeping gene nucleoside diphosphate kinase B ([1]; 10 nM, 24 hours, vs untreated cells) | synthesis of CD4 antigen, Cyclin D2 and thymus cell antigen 1 genes (changed by antigenic stimulation) ([1]; GnRH-II alone 10 nM, data not shown) |
| --- | --- | --- | --- | --- | --- |
| pGlu-His-Trp-Ser-Tyr-Gly-Leu-Arg-Pro-Gly-NH2 [GnRH-I] | increases | as efficiently as PMA; also recorded: as markedly as does PMA |  |  |  |
| GnRH-II: unique ten amino acid long neuropeptide, 70% homologous in peptide structure to GnRH-I, encoded by its own gene (peptide) peptide: QHWSHGWYPGGKRALSSAQDPQNALRPPGRALDTAAGSPVQTAHGLPSDALAPLDDSMPWEGRTTAQWSLHRKRHLARTLLTAAREPRPAPPSSNKV | increases | as efficiently as PMA; also recorded: as markedly as does PMA | induced the over expression | not affected | did not affect |
